Our source for the response values is publication PMC3771917, “The Crystal Structure of the Orphan Nuclear Receptor NR2E3/PNR Ligand Binding Domain Reveals a Dimeric Auto-Repressed Conformation” (PLoS ONE, 2013).

The labels stand for the following.
B1: NR2E3 LBD (residues 192-410), wild type, as Gal4DBD–NR2E3LBD and VP16AD–NR2E3LBD [human] / itself (parent complex)
chain: DENIDVTSNDPEFPSSPYSSSSPCGLDSIHETSARLLFMAVKWAKNLPVFSSLPFRDQVILLEEAWSELFLLGAIQWSLPLDSCPLLAPPEASAAGGAQGRLTLASMETRVLQETISRFRALAVDPTEFACMKALVLFKPETRGLKDPEHVEALQDQSQVMLSQHSKAHHPSQPVRFGKLLLLLPSLRFITAERIELLFFRKTIGNTPMEKLLCDMFKN

Variants of B1 are the subject of one assay. Nature of the assay: mammalian two hybrid assay; pBind-PNR L375R + pACT-PNR L375R; parent: 0.42; read off a plot.
Turning to DENIDVTSNDPEFPSSPYSSSSPCGLDSIHETSARLLFMAVKWAKNLPVFSSLPFRDQVILLEEAWSELFLLGAIQWSLPLDSCPLLAPPEASAAGGAQGRLTLASMETRVLQETISRFRALAVDPTEFACMKALVLFKPETRGLKDPEHVEALQDQSQVMLSQHSKAHHPSQPVRFGKLLLLRPSLRFITAERIELLFFRKTIGNTPMEKLLCDMFKN [chain 1 L184R], the response was about 0.045 RLU.

Variants of B1 are the subject of the next assay. Kind of assay: mammalian two hybrid assay; pBind-PNR L372R + pACT-PNR L372R; parent: 0.42; read off a plot.
Consider DENIDVTSNDPEFPSSPYSSSSPCGLDSIHETSARLLFMAVKWAKNLPVFSSLPFRDQVILLEEAWSELFLLGAIQWSLPLDSCPLLAPPEASAAGGAQGRLTLASMETRVLQETISRFRALAVDPTEFACMKALVLFKPETRGLKDPEHVEALQDQSQVMLSQHSKAHHPSQPVRFGKLRLLLPSLRFITAERIELLFFRKTIGNTPMEKLLCDMFKN [chain 1 L181R], for which the response is about 0.045 RLU.

Another assay covers variants of B1. Kind of assay: mammalian two hybrid assay; pBind-PNR L372/375R + pACT-PNR L372/375R; parent: 0.42; read off a plot.
With DENIDVTSNDPEFPSSPYSSSSPCGLDSIHETSARLLFMAVKWAKNLPVFSSLPFRDQVILLEEAWSELFLLGAIQWSLPLDSCPLLAPPEASAAGGAQGRLTLASMETRVLQETISRFRALAVDPTEFACMKALVLFKPETRGLKDPEHVEALQDQSQVMLSQHSKAHHPSQPVRFGKLRLLRPSLRFITAERIELLFFRKTIGNTPMEKLLCDMFKN [chain 1 L181R, chain 1 L184R], the response was about 0.055 RLU.
